The values below come from patent US12031137B2, “Compositions comprising SASP modulators and senescence attenuators and uses thereof for modulating cellular senescence” (RSEM, LIMITED PARTNERSHIP, priority 2016, dated 2024).

For one assay, the target named is T1, human VEGF165 (Homo sapiens, UniProt P15692).
T1 construct: made in house; host or cells: HEK293T
T1 sequence (P15692 27-191 isoform P15692-4): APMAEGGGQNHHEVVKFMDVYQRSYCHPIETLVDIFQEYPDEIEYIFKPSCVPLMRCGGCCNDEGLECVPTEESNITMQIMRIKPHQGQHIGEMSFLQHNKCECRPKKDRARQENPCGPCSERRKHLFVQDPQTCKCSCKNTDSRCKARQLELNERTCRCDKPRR
The assay can be described thus: AP-VEGF165 binding assay on plate-coated purified traps (saturation curves, KD). The note with it: AP-VEGF165 ligand. As for the experimental part:
Production of AP-VEGF165. the coding sequence of the human VEGF165 variant 1 (NM_001025366) was sub-cloned in the pAPtag5 vector (GenHunter), in-frame with an Alkaline Phosphatase domain (AP-VEGF165). HEK293T cells were transfected with the AP-VEGF165 construct using a polyethylenimine (PEI) transfection method. Following the overnight transfection step, cells were cultured for an additional 60 hr in serum free media (In vitrogen). The cell media were collected and concentrated on a PES device (Pierce). The concentrated AP-VEGF165 ligand was analysed on PAGE-SDS and quantified using SimplyBlue safe stain (Life technologies).
(§1) Sema 3A and AP-VEGF165 binding assays. Saturation curves for the determinations of KD of binding to SEMA 3A or VEGF165 were obtained as follow. Wells of high protein binding 96 well plates (Maxisorp, Nunc) were coated with purified traps diluted in PBS and blocked afterward with binding buffer (PBS containing 2% casein and 0.05% Tween 20). The SEMA3A-FC (R&D systems) or AP-VEGF165 ligands were diluted in binding buffer over an extensive range of concentrations and added to wells. Following an overnight incubation, wells were washed with PBS containing 0.05% tween. Bound SEMA3a-FC was detected using an HRP-linked anti-Human IgG (Biorad) and ECL substrate (Pierce). Alternatively, bound AP-VEGF165 was detected using CPD star substrate (Roche). The Chemiluminescent signal was acquired on a TECAN reader. Dissociation constant (KD) were determined by non-linear curve fitting using the Graph Pad prism software.
(§2) The relative affinity of traps of the present invention to SEMA3A and VEGF has been assessed. Traps were prepared as described in Example 8.

The test system of another assay is SEMA3A-FC. The assay can be described thus: Sema 3A binding assay on plate-coated purified traps (saturation curves, KD). The note with it: for Binding to SEMA3A: Table 2, Yes/No; for SEMA 3A-FC binding (dissociation constant): traps coated on plate, overnight incubation. As for the experimental part:
as §1, §2

B1: Trap AD: NRP1 trap a1a2b1, aa about 22-424 and 561-583, D320K; SEQ ID NOs 51/52 (protein)
chain: MERGLPLLCAVLALVLAPAGAFRNDKCGDTIKIESPGYLTSPGYPHSYHPSEKCEWLIQAPDPYQRIMINFNPHFDLEDRDCKYDYVEVFDGENENGHFRGKFCGKIAPPPVVSSGPFLFIKFVSDYETHGAGFSIRYELFKRGPECSQNYTTPSGVIKSPGFPEKYPNSLECTYIVFAPKMSEIILEFESFDLEPDSNPPGGMFCRYDRLEIWDGFPDVGPHIGRYCGQKTPGRIRSSSGILSMVFYTDSAIAKEGFSANYSVLQSSVSEDFKCMEALGMESGEIHSDQITASSQYSTNWSAERSRLNYPENGWTPGEKSYREWIQVDLGLLRFVTAVGTQGAISKETKKKYYVKTYKIDVSSNGEDWITIKEGNKPVLFQGNTNPTDVVVAVFPKPLITRFVRIKPATWETGISMRFEVYGCRSGSKENLYFQG
Regarding B1, the “VEGF165 binding (dissociation constant)” value in the assay with human VEGF165 was “No binding”. In the assay on SEMA3A-FC, the “Binding to SEMA3A” value is reported as “No” and the “SEMA 3A-FC binding (dissociation constant)” value is on record as “No binding”.

B2: Trap AE: NRP1 trap a1a2b1b2, aa about 22-560, D320K; SEQ ID NOs 53/54 (protein)
chain: MERGLPLLCAVLALVLAPAGAFRNDKCGDTIKIESPGYLTSPGYPHSYHPSEKCEWLIQAPDPYQRIMINFNPHFDLEDRDCKYDYVEVFDGENENGHFRGKFCGKIAPPPVVSSGPFLFIKFVSDYETHGAGFSIRYELFKRGPECSQNYTTPSGVIKSPGFPEKYPNSLECTYIVFAPKMSEIILEFESFDLEPDSNPPGGMFCRYDRLEIWDGFPDVGPHIGRYCGQKTPGRIRSSSGILSMVFYTDSAIAKEGFSANYSVLQSSVSEDFKCMEALGMESGEIHSDQITASSQYSTNWSAERSRLNYPENGWTPGEKSYREWIQVDLGLLRFVTAVGTQGAISKETKKKYYVKTYKIDVSSNGEDWITIKEGNKPVLFQGNTNPTDVVVAVFPKPLITRFVRIKPATWETGISMRFEVYGCKITDYPCSGMLGMVSGLISDSQITSSNQGDRNWMPENIRLVTSRSGWALPPAPHSYINEWLQIDLGEEKIVRGIIIQGGKHRENKVFMRKFKIGYSNNGSDWKMIMDDSKRKAKSFEGNNNYDTPELRTFPALSTRFIRIYPERATHGGLGLRMELLGCRSGSKENLYFQG
Turning to B2, in the assay with human VEGF165, the “VEGF165 binding (dissociation constant)” value is listed as “No binding”. Moreover, in the assay with SEMA3A-FC, the “Binding to SEMA3A” value is listed as “No” and the “SEMA 3A-FC binding (dissociation constant)” value was “No binding”.
